Experimental data taken from PMC12152872 (2025).
Values joined by “and” are separate entries in the source; they are usually repeats but may differ in a detail not shown here. Equal values may be shown once.

Biological target: T1, BTN2A1 B30.2 (Homo sapiens, UniProt Q7KYR7)
T1 chain: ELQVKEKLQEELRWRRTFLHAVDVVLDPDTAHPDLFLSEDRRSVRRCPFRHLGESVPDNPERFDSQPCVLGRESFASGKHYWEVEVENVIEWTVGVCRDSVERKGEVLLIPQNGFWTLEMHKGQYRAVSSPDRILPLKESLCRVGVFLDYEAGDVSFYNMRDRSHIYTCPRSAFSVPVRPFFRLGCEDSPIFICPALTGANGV
Assay: ITC

B1: BTN3A1 B30.2 (protein)
chain: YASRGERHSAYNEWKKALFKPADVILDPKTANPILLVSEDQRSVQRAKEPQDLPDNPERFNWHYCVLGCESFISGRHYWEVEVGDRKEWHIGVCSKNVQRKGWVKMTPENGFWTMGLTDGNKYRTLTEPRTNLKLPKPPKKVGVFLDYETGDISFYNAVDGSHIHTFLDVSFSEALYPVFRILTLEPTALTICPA
modifications: DMASPP
B1 was tested. Which Kd did it give?
Its Kd is 8.19 µM and 18.8 µM.
